According to the supplement of paper PMC10567573:

B1: STK38L (parent)
chain: RQLAYSTVGTPDYIAPEVFMQTGY
B2: FCHO1 (parent)
chain: HLELTRKLQDLIKDVLRYGEEQLK

Variants of: B1
Assay: protein stability index of a GFP-peptide fusion (GPS, HEK-293T) (PSI 1-6); higher = more stable
Settings: c terminus: a fixed tail appended
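Further: lentivirally expressed fusions sorted by FACS into six bins by GFP to DsRed ratio, PSI derived from sequencing read proportions per bin multiplied by bin number.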

| Variant | protein stability index |
| --- | --- |
| RQLAYSTVGTPDYIAPEVHMQTGY [F19H] | 2.76 |
| RQLAYSTVGTPDYIAPEVIMQTGY [F19I] | 2.51 |
| RQLAYSTVGQPDYIAPEVFMQTGY [T10Q] | 3.41 |
| RQLAYSTVGCPDYIAPEVFMQTGY [T10C] | 2.18 |
| RQLAYSTVGEPDYIAPEVFMQTGY [T10E] | 2.89 |
| RQLAYSTKGTPDYIAPEVFMQTGY [V8K] | 2.98 |
| RQLAYSTYGTPDYIAPEVFMQTGY [V8Y] | 1.74 |
| RQLAYSTQGTPDYIAPEVFMQTGY [V8Q] | 2.63 |
| RQLAYSAVGTPDYIAPEVFMQTGY [T7A] | 2.76 |
| RQLAYSIVGTPDYIAPEVFMQTGY [T7I] | 2.04 |
| RQLAYSHVGTPDYIAPEVFMQTGY [T7H] | 2.44 |
| RQLAYSTVGTPDYIAPEVFMATGY [Q21A] | 2.88 |
| RQLAYSTVGTPDYHAPEVFMQTGY [I14H] | 2.57 |
| RQLAYSTVGTPDYSAPEVFMQTGY [I14S] | 3.12 |
| RQNAYSTVGTPDYIAPEVFMQTGY [L3N] | 2.56 |
| RQEAYSTVGTPDYIAPEVFMQTGY [L3E] | 3.15 |
| RQGAYSTVGTPDYIAPEVFMQTGY [L3G] | 2.74 |
| RQWAYSTVGTPDYIAPEVFMQTGY [L3W] | 1.53 |
| RQLAYSTVGTPDGIAPEVFMQTGY [Y13G] | 3.08 |
| RQLAYSTVGTPDTIAPEVFMQTGY [Y13T] | 2.92 |
| RQLAYSTVGTPDSIAPEVFMQTGY [Y13S] | 4.05 |
| RQLAYSTVGTPSYIAPEVFMQTGY [D12S] | 2.68 |
| RQLAYSTVGTPTYIAPEVFMQTGY [D12T] | 2.91 |
| RQLAYSTVVTPDYIAPEVFMQTGY [G9V] | 1.98 |
| RQLAYSTVHTPDYIAPEVFMQTGY [G9H] | 2.42 |
| RQLAYSTVKTPDYIAPEVFMQTGY [G9K] | 2.24 |
| RQLAYSTVWTPDYIAPEVFMQTGY [G9W] | 1.89 |
| RQLAYSTVGTPDYIAPEVFYQTGY [M20Y] | 2.89 |

| Variant | protein stability index |
| --- | --- |
| RQLAYSTVGTPDYIAPEVFIQTGY [M20I] | 2.14 |
| RQLAYSTVGTPDYIAPEVFMQTIY [G23I] | 1.99 |
| RQLAYSTVGTPDYIAPEVFMQTLY [G23L] | 2.28 |
| RQLAYSTVGTPDYIAPEVFMQTFY [G23F] | 1.52 |
| RQLAYSTVGTPDYIAPEVFMQTVY [G23V] | 1.81 |
| RCLAYSTVGTPDYIAPEVFMQTGY [Q2C] | 2.42 |
| RDLAYSTVGTPDYIAPEVFMQTGY [Q2D] | 2.69 |
| RRLAYSTVGTPDYIAPEVFMQTGY [Q2R] | 3.34 |
| RQLAYSTVGTPDYIHPEVFMQTGY [A15H] | 2.1 |
| RQLAYHTVGTPDYIAPEVFMQTGY [S6H] | 2.63 |
| RQLAYQTVGTPDYIAPEVFMQTGY [S6Q] | 2.25 |
| RQLAYLTVGTPDYIAPEVFMQTGY [S6L] | 2.08 |
| RQLAYATVGTPDYIAPEVFMQTGY [S6A] | 1.95 |
| RQLAYWTVGTPDYIAPEVFMQTGY [S6W] | 2.5 |
| RQLAYSTVGTYDYIAPEVFMQTGY [P11Y] | 2.57 |
| RQLAYSTVGTNDYIAPEVFMQTGY [P11N] | 2.78 |
| RQLAYSTVGTTDYIAPEVFMQTGY [P11T] | 2.44 |
| RQLAYSTVGTLDYIAPEVFMQTGY [P11L] | 2.2 |
| RQLAYSTVGTWDYIAPEVFMQTGY [P11W] | 2.29 |
| RQLAYSTVGTHDYIAPEVFMQTGY [P11H] | 2.58 |
| RQLAYSTVGTIDYIAPEVFMQTGY [P11I] | 2 |
| RQLTYSTVGTPDYIAPEVFMQTGY [A4T] | 2.55 |
| RQLAYSTVGTPDYIAPEVFMQTGH [Y24H] | 3.26 |
| RQLAYSTVGTPDYIAPEVFMQCGY [T22C] | 2.24 |
| RQLAYSTVGTPDYIAPEVFMQHGY [T22H] | 2.63 |
| VQLAYSTVGTPDYIAPEVFMQTGY [R1V] | 2.45 |
| KQLAYSTVGTPDYIAPEVFMQTGY [R1K] | 2.71 |

Variants of: B2
Assay: as above
Settings: c terminus: a fixed tail appended

| Variant | protein stability index |
| --- | --- |
| HLELTRKLQDLIKDVLRYGEEQHK [L23H] | 2.15 |
| HLELTRKLQDLIKDVLRYGEEQYK [L23Y] | 2.29 |
| HLELTRKLQDLIKDVLRYGEEQIK [L23I] | 3.49 |
| HLELTRKLQDLIKDVLRYGEEQQK [L23Q] | 2.06 |
| HLELTRKLQDLIKDVLRYGEEQDK [L23D] | 2.53 |
| HLELTRKLQDLIKDVLRYGEEQGK [L23G] | 2.57 |
| HLELTRKLQDLIKDVLRYGEEQSK [L23S] | 2.31 |
| HLELTRKLQDLIKDVLRYGEEQEK [L23E] | 2.24 |
| HLELTRKLQDLIKDVLRYGEEQCK [L23C] | 1.09 |
| HLELTRKLQDLIKDVLRYGEEQAK [L23A] | 2.36 |
| HLELTRKLQDLIKDVLRYGEEQNK [L23N] | 2.61 |
| HLELTRKLQDLIKDVLRYGEEQFK [L23F] | 3.59 |
| HLELTRKLQDLIKDVLRYGEEQTK [L23T] | 3.42 |
| HLELTRKLQDLIKDVLRYGEEQRK [L23R] | 2.44 |
| HLELTRKLQDLIKDVLRYGEEQPK [L23P] | 1.73 |
| HLELTRKLQDLIKDVLRYGEEQKK [L23K] | 2 |
| HLELTRKLQDLIKDVLRYGEEQLC [K24C] | 1.63 |
| HLELTRKLQDLIKDVLRYGEEQLF [K24F] | 2.05 |
| HLELTRKLQDLIKDVLRYGEEQLH [K24H] | 3.16 |
| HLELTRKLQDLIKDVLRYGEEQLS [K24S] | 2.66 |

| Variant | protein stability index |
| --- | --- |
| HLELTRKLQDLIKDVLRYGEEQLQ [K24Q] | 2.48 |
| HLELTRKLQDLIKDVLRYGEEQLE [K24E] | 1.44 |
| HLELTRKLQDLIKDVLRYGEEQLI [K24I] | 2.67 |
| HLELTRKLQDLIKDVLRYGEEQLG [K24G] | 1.01 |
| HLELTRKLQDLIKDVLRYGEEQLY [K24Y] | 2.8 |
| HLELTRKLQDLIKDVLRYGEEQLM [K24M] | 2.79 |
| HLELTRKLQDLIKDVLRYGEEQLT [K24T] | 1.6 |
| HLELTRKLQDLIKDVLRYGEEQLA [K24A] | 1.59 |
| HLELTRKLQDLIKDVLRYGEEQLD [K24D] | 1.84 |
| HLELTRKLQDLIKDVLRYGEEQLV [K24V] | 4.54 |
| HLELTRKLQDLIKDVLRYGEEQLN [K24N] | 3.69 |
| HLELTRKLQDLIKDVLRYGEEQLL [K24L] | 2.8 |
| HLELTRKLQDLIKDVLRYGEEQLP [K24P] | 2.02 |
| HLELTRKLQDLIKDVLRYGEERLK [Q22R] | 3.19 |
| HLELTRKLQDLIKDVLRYGEEPLK [Q22P] | 1.79 |
| HLELTRKLQDLIKDVLRYGEEVLK [Q22V] | 2.32 |
| HLELTRKLQDLIKDVLRYGEESLK [Q22S] | 1.84 |
| HLELTRKLQDLIKDVLRYGEEMLK [Q22M] | 1.91 |
| HLELTRKLQDLIKDVLRYGEEYLK [Q22Y] | 3.18 |
